Data as given in patent publication US20220193270A1, “METHOD FOR ENHANCING TUMOR GROWTH” (MINERVA BIOTECHNOLOGIES CORPORATION, priority 2013, published 2022).

Tests used:
[1] = biological target: T1, PSMGFR peptide of the MUC1* extracellular domain (Homo sapiens, UniProt P15941); assay: ELISA binding to PSMGFR peptide; conditions: FIG. 47, FIG. 48b
T1 sequence (P15941 1110-1154 limits assumed): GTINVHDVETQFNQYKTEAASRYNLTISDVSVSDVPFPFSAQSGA
From the text: We made recombinant human NM23, also called NME1, dimers that bear the […] mutation that stabilizes dimers. We previously reported that human NME1 dimers bind to the PSMGFR portion of the extracellular domain of the MUC1* receptor (Smagghe et al. 2013). We also made recombinant human NME7-AB that is secreted as a monomer. […] We made recombinant bacterial NME proteins found in Halomonas Sp. 593 (‘HSP 593’) and in Porphyromonas gingivalis W83 that had high sequence homology to human NME1 and had been reported to exist in dimer state (FIG. 48 and FIG. 49). HSP 593 expressed well in E. coli and a significant portion was present as a dimer, which population was then purified by FPLC and confirmed the dimer population (FIG. 48a).

[2] = test system: DU145 MUC1-positive prostate cancer cells; assay: RT-PCR of cancer stem cell markers in DU145 cells cultured with agent; type: cell-based, human; conditions: after 9-10 passages; FIG. 11b
Experimental: Example 3: Agents that are able to maintain stem cells in the naïve state transform cancer cells into cancer stem cells wherein only a small number of cells are required for engraftment. Cancer cells were cultured according to standard practice. In the controls, the cancer cells were cultured in their normal media: RPMI for T47D breast cancer cells, DU145 and PC3 prostate cancer cells. However, the test agents, recombinant proteins human NME1 dimers, bacterial HSP593 NME1 dimers, human NME7-AB and 2i, were added to a serum-free minimal media to eliminate potential interference from the many growth factors and cytokines in serum.
To this serum-free minimal media, rhNME1 (aka NM23) was added to a final concentration of 8 nM, or bacterial HSP593 recombinant NME1 was added to a final concentration of 8 nM, or rhNME7-AB was added to a final concentration of 4 nM, or 2i inhibitors, PD0325901 and CHIR99021, which inhibit the MAP kinase pathway and GSK3, respectively, were added to a final concentration of 3 μM and 1 μM.
Example 3b: Prostate cancer cells were also cultured as described above with either human NME1 dimers, bacterial NME1 dimers, NME7-AB, or 2i inhibitors. […] Thus, the RT-PCR measurements of the cancer stem cell markers are lower than that of the T47D cells, which could be explained by it being the measure of transformed cells and non-transformed cells. In the case of breast cancer cells, we were able to isolate the fully transformed cancer stem cells by collecting the floating cells, but were not able to do so here. DU145 MUC1-positive prostate cancer cells were cultured in RPMI media as a control and in minimal media to which was added recombinant human NME1/NM23 dimers, bacterial HSP593 dimers, or human NME7-AB. […] There was about a 2-8-fold increase in OCT4, MUC1 and CDH1/E-cadherin. However, after serial passaging under these same culture conditions, the increases in expression of cancer stem cell markers became more pronounced. We reasoned that serial passaging allowed more time for cells to transform since we could not rapidly collect floating cells.

T47D breast cancer cells = assay: T47D xenograft engraftment, cells mixed with Matrigel plus NME7, with or without daily NME7 injections; type: in vivo, nu/nu mice
Experimental: Example 1: Immune-compromised nu/nu mice between 40-60 days old were implanted with 90-day estrogen release pellets to foster the engraftment and growth of breast tumor cells. Human T47D breast cancer cells were mixed 1:2 with Matrigel then injected into the flank of the mouse (4 million each mouse), six (6) mice per group. In a second group, cancer cells were mixed with Matrigel at the same 1:2 ratio (100 uL cells: 200 ul Matrigel) except, human recombinant NME7-AB was added into the cell/Matrigel mix to a final NME7 concentration of 16 nM (6 mice). Of those six (6) mice, three (3) were randomly chosen to receive NME7 injections daily (100 uL at 32 nM), after day 14. […] After Day 14, the mice whose tumor cells were mixed with NME7 were also injected once daily with human recombinant NME7. […] After Day 14, half of the mice were also injected once daily with human recombinant NME7. […] Dashed lines indicate mice that were also injected with NME7 after Day 14.

[3] = test system: Human HES-3 embryonic stem cells; assay: Human embryonic stem cell culture with NME protein as only growth factor; type: cell-based; conditions: serum-free minimal base media, agent as the only growth factor or cytokine
From the text: Factors that are able to maintain stem cells in the naive state are also able to transform cells to a cancer-like or stem-like state and are also able to transform cancer cells to a cancer stem cell state or a more metastatic state. Herein, we have shown several examples of bacterial NME1 being able to function like human NME1 dimers, which are also able to function like NME7 or NME7-AB. However, the primary example that these factors function in a very similar way is their ability to promote the growth of stem cells, inhibit differentiation and maintain them in the naive state. […] Human HES-3 embryonic stem cells were cultured in a serum-free minimal base media with either HSP 593, human NME1 or NME7-dimers or human NME7-AB as the only growth factor or cytokine. […] Several examples have been presented here that indicate that contacting cells with an agent or agents that are able to revert stem cells from the primed state to the less mature naive state are also able to revert a wide variety of cell types to a less mature state: somatic cells to stem or progenitor cells or cancer cells to more metastatic state also called cancer stem cell state. Therefore, the invention is not meant to be limited to a specific cell type or a specific cancer cell type.

T47D cancer stem cells = assay: Tumor initiation and metastasis from low numbers of NME7-AB-induced T47D cancer stem cells, with or without daily NME7-AB injections; type: in vivo, nu/nu female mice
Experimental: T47D breast cancer cells were cultured as described in Example 3a above. After 7-10 days culture in minimal media to which was added rhNME7-AB to a final concentration of 4 nM, floating cells were collected. […] The floating cells were counted and re-suspended in PBS. The NME7-induced cancer stem cells were mixed 1:2 with reduced growth factor Matrigel; that is 2 parts Matrigel to 1 part cells. A range of ratios of cancer cells to NME7 or the injection schedule of NME7 is expected to vary from one mouse strain to another and from one tumor type to another.
The cancer stem cells were implanted in the flank of female nu/nu mice which had previously been implanted with a 90-day release estrogen pellet in the shoulder area. Four (4) groups of six (6) mice each were implanted with either 50, 100, 1,000 or 10,000 T47D cancer stem cells. In each case the total volume injected into each mouse was 100 uL. Half of the mice in each group were injected daily with 200 uL of recombinant human NME7-AB in the flank near but not at the cancer stem cell implantation site.
Animals were monitored for food intake and body weight, which were normal and stable. Two (2) independent and blinded tumor measurements were taken once a week and recorded.

binding to PSMGFR portion of the MUC1* extracellular domain [1]: bind to and dimerize
B1: NME7-AB: recombinant human NME7 variant (A and B domains, SEQ ID NO:39) secreted as a monomer; 'NME7' in the experiments means this protein (protein)
chain: MEKTLALIKPDAISKAGEIIEIINKAGFTITKLKMMMLSRKEALDFHVDHQSRPFFNELIQFITTGPIIAMEILRDDAICEWKRLLGPANSGVARTDASESIRALFGTDGIRNAAHGPDSFASAAREMELFFPSSGGCGPANTAKFTNCTCCIVKPHAVSEGLLGKILMAIRDAGFEISAMQMFNMDRVNVEEFYEVYKGVVTEYHDMVTEMYSGPCVAMEIQQNNATKTFREFCGPADPEIARHLRPGTLRAIFGKTKIQNAVHCTDLPEDGLLEVQYFFKILDN
modifications: Human NME7-AB
notes: 'NME7' in the experiments means this protein
expression of NANOG and OCT4 [2]: significant increases
increase in the expression of CDH1/E-cadherin [2]: 9 fold
engraftment rate (T47D breast cancer cells; cancer cells mixed with NME7 prior to implantation alone): 33%
engraftment rate (T47D breast cancer cells; mixed with NME7 prior to implantation plus NME7 injections into the animal after cell implantation): 66%
implanted mice showing tumor growth characteristic of engraftment (T47D breast cancer cells; of six (6) implanted mice, T47D mixed with Matrigel and NME7 (two of six with standard Matrigel)): 4
average growth increase from Day 7 until day 21 (T47D breast cancer cells; tumors mixed with NME7 prior to implantation (57% without it)): 144%
support of human stem cell growth [3]: fully supported human stem cell growth
mice that developed tumors (T47D cancer stem cells; all 24 mice implanted with 50, 100, 1,000 or 10,000 NME7-induced cancer stem cells): 67%
number of implanted cells that initiate tumors in mice (T47D cancer stem cells; cancer stem cells generated by culture in NME7-AB): ≤ 50 cells
time after which cancers metastasized (T47D cancer stem cells; group injected with NME7 daily): about 50 days
mice that formed tumors (T47D cancer stem cells; implanted with NME7-induced cancer stem cells and receiving daily injections of NME7): 83%
mice that formed tumors (T47D cancer stem cells; implanted with NME7-induced cancer stem cells, no circulating NME7 (no daily injections)): 50%
tumor-bearing mice that developed cancer metastasis (multiple tumors) (T47D cancer stem cells; of the daily NME7-injected mice that formed tumors, by approximately Day 50): 80%
